# Results taken from publication PMC5135098, “Attenuation of Quorum Sensing Regulated Virulence of Pectobacterium carotovorum subsp. carotovorum through an AHL Lactonase Produced by Lysinibacillus sp. Gs50” (PLoS ONE, 2016).
# Tested on: CCCCCC(=O)NC1CCOC1=O
# Test: purified protein
# Conditions: pH 8.0, 50 mM Tris-Cl, 35°C (methods: 30°C, 2 h for saturation curve), no added metal
substance,measurement,value
AdeH (Lysinibacillus sp. Gs50),Km,3.089 µM
